Consider two substances from patent US20230236179A1.

Test [1] addresses human Brachyury protein standard (Abcam ab114235) (human) (UniProt O15178). Briefly: conventional Simoa sandwich (capture beads + detector m8), 150 pM SβG/5 min; Brachyury at 30 fM.
The target is the same in test [2]. In words: conventional Simoa sandwich (capture beads + detector m8), 150 pM SβG/5 min; Brachyury at 0.24 fM.
For test [3] the target is unchanged. In words: conventional Simoa sandwich (capture beads + detector m8), 150 pM SβG/5 min; Brachyury at 0.048 fM.
Test [4] has the same target. Briefly: dSimoa sandwich (capture beads + detector m8), 300 pM streptavidin-DNA/15 min; Brachyury at 1.2 fM.
Test [5] has the same target. Briefly: conventional Simoa sandwich (capture beads + detector m8), 150 pM SβG/5 min; Brachyury at 150 fM.
For test [6] the target is unchanged. In words: dSimoa sandwich (capture beads + detector m8), 300 pM streptavidin-DNA/15 min; Brachyury at 0.048 fM.
For test [7] the target is unchanged. Briefly: conventional Simoa sandwich (capture beads + detector m8), 300 pM SβG/15 min; Brachyury at 150 fM.
Test [8] shares this target. Briefly: dSimoa sandwich (capture beads + detector m8), 300 pM streptavidin-DNA/15 min; Brachyury at 30 fM.
Test [9] has the same target. Briefly: conventional Simoa sandwich (capture beads + detector m8), 150 pM SβG/5 min; Brachyury at 1500 fM.
Test [10] has the same target. In words: dSimoa sandwich (capture beads + detector m8), 300 pM streptavidin-DNA/15 min; Brachyury at 0.24 fM.
Test [11] shares this target. In words: dSimoa sandwich (capture beads + detector m8), 300 pM streptavidin-DNA/15 min; Brachyury at 150 fM.
Test [12] shares this target. Briefly: conventional Simoa sandwich (capture beads + detector m8), 300 pM SβG/15 min; Brachyury at 1.2 fM.
The target is the same in test [13]. In words: conventional Simoa sandwich (capture beads + detector m8), 150 pM SβG/5 min; Brachyury at 1.2 fM.
Test [14] shares this target. Briefly: conventional Simoa sandwich (capture beads + detector m8), 300 pM SβG/15 min; Brachyury at 0.048 fM.
Test [15] has the same target. In words: dSimoa sandwich (capture beads + detector m8), 300 pM streptavidin-DNA/15 min; Brachyury at 6 fM.
The target is the same in test [16]. In words: conventional Simoa sandwich (capture beads + detector m8), 300 pM SβG/15 min; Brachyury at 30 fM.
The target is the same in test [17]. Briefly: conventional Simoa sandwich (capture beads + detector m8), 300 pM SβG/15 min; Brachyury at 6 fM.
The target is the same in test [18]. Briefly: conventional Simoa sandwich (capture beads + detector m8), 150 pM SβG/5 min; Brachyury at 6 fM.
Test [19] has the same target. Briefly: conventional Simoa sandwich (capture beads + detector m8), 300 pM SβG/15 min; Brachyury at 0.24 fM.
The target is the same in test [20]. In words: conventional Simoa sandwich (capture beads + detector m8), 300 pM SβG/15 min; Brachyury at 1500 fM.
Test [21] deals with human interleukin-10 (IL-10) protein standard (printed as Biolegend 501501) (human) (UniProt P22301). Briefly: dSimoa sandwich (capture beads + detector m5), 150 pM streptavidin-DNA/15 min; IL-10 at 15 fM.
Test [22] shares this target. Briefly: dSimoa sandwich (capture beads + detector m5), 150 pM streptavidin-DNA/15 min; IL-10 at 0.024 fM.
Test [23] shares this target. Briefly: conventional Simoa sandwich (capture beads + detector m5), 150 pM SβG/15 min; IL-10 at 3 fM.
Test [24] shares this target. In words: conventional Simoa sandwich (capture beads + detector m5), 150 pM SβG/15 min; IL-10 at 0.12 fM.
For test [25] the target is unchanged. In words: dSimoa sandwich (capture beads + detector m5), 150 pM streptavidin-DNA/15 min; IL-10 at 0.0048 fM.
Test [26] has the same target. In words: conventional Simoa sandwich (capture beads + detector m5), 150 pM SβG/5 min; IL-10 at 0.0048 fM.
The target is the same in test [27]. Briefly: dSimoa sandwich (capture beads + detector m5), 150 pM streptavidin-DNA/15 min; IL-10 at 0.00096 fM.
The target is the same in test [28]. In words: conventional Simoa sandwich (capture beads + detector m5), 150 pM SβG/5 min; IL-10 at 75 fM.
Test [29] has the same target. Briefly: dSimoa sandwich (capture beads + detector m5), 150 pM streptavidin-DNA/15 min; IL-10 at 3 fM.
Test [30] shares this target. Briefly: conventional Simoa sandwich (capture beads + detector m5), 150 pM SβG/15 min; IL-10 at 0.6 fM.
Test [31] has the same target. In words: conventional Simoa sandwich (capture beads + detector m5), 150 pM SβG/5 min; IL-10 at 0.024 fM.
For test [32] the target is unchanged. Briefly: conventional Simoa sandwich (capture beads + detector m5), 150 pM SβG/5 min; IL-10 at 15 fM.
The target is the same in test [33]. Briefly: conventional Simoa sandwich (capture beads + detector m5), 150 pM SβG/5 min; IL-10 at 0.12 fM.
Test [34] shares this target. In words: conventional Simoa sandwich (capture beads + detector m5), 150 pM SβG/5 min; IL-10 at 3 fM.
The target is the same in test [35]. In words: conventional Simoa sandwich (capture beads + detector m5), 150 pM SβG/5 min; IL-10 at 0.6 fM.
The target is the same in test [36]. Briefly: conventional Simoa sandwich (capture beads + detector m5), 150 pM SβG/15 min; IL-10 at 75 fM.
For test [37] the target is unchanged. In words: conventional Simoa sandwich (capture beads + detector m5), 150 pM SβG/15 min; IL-10 at 0.024 fM.
For test [38] the target is unchanged. In words: dSimoa sandwich (capture beads + detector m5), 150 pM streptavidin-DNA/15 min; IL-10 at 0.12 fM.
Test [39] has the same target. In words: conventional Simoa sandwich (capture beads + detector m5), 150 pM SβG/15 min; IL-10 at 0.0048 fM.
For test [40] the target is unchanged. In words: conventional Simoa sandwich (capture beads + detector m5), 150 pM SβG/15 min; IL-10 at 15 fM.
For test [41] the target is unchanged. Briefly: dSimoa sandwich (capture beads + detector m5), 150 pM streptavidin-DNA/15 min; IL-10 at 0.6 fM.

UniProt O15178, sequence (O15178 whole entry): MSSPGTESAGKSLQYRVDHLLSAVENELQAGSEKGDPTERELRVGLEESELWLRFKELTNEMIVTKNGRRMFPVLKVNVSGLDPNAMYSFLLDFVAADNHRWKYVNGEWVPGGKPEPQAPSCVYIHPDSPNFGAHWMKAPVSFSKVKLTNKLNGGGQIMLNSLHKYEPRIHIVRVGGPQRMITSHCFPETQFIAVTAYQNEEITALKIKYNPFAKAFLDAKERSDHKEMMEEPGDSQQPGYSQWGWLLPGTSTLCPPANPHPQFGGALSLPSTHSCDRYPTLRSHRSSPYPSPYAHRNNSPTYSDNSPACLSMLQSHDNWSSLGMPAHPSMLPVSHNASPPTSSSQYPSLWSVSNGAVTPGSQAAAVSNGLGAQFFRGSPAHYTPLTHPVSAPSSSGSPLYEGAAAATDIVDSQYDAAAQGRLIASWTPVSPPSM
UniProt P22301, sequence (P22301 19-178 limits assumed): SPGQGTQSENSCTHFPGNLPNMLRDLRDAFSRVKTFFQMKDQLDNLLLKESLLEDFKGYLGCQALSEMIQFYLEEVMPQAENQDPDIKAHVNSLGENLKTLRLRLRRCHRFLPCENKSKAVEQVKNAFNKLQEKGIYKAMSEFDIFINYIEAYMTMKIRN

For the substance “Brachyury capture antibody (Abcam ab236023)”, the average AEB in [1] worked out at 0.156 AEB; in test [2], 0.012 AEB; in test [3], 0.0108 AEB; in [5], 0.677 AEB; in [7], 1.77 AEB; in test [9], 5.97 AEB. The average AEB was found to be 0.0494 AEB in [12]; 0.0174 AEB in test [13]; 0.0398 AEB in test [14]; 0.358 AEB in test [16]; 0.105 AEB in test [17]; 0.0425 AEB in test [18]. Also, the values for the average AEB in test [19] and in [20] were 0.0395 AEB and 14.3 AEB, respectively. Besides, the average AMB in [4] turned out to be 0.0173 AMB; in [6], 0.0127 AMB; in test [8], 0.156 AMB; in [10] it was 0.0147 AMB; in test [11], 0.825 AMB; in [15], 0.0417 AMB.

“IL-10 capture antibody (Biolegend 506802)”: the average AMB in [21] stood at 0.561 AMB; in test [22], 0.0058 AMB; in test [25], 0.0042 AMB; in test [27], 0.0045 AMB; in test [29], 0.121 AMB; in test [38], 0.0097 AMB. Also, the average AMB in test [41] is 0.0281 AMB. Moreover, the average AEB in [23] amounted to 0.107 AEB; in test [24] it was 0.0395 AEB; in [26], 0.0194 AEB; in test [28], 1.41 AEB; in test [30], 0.05 AEB; in test [31], 0.0218 AEB. The average AEB amounted to 0.306 AEB in test [32]; 0.0208 AEB in test [33]; 0.0765 AEB in [34]; 0.0296 AEB in test [35]; 2.05 AEB in test [36]; 0.0439 AEB in [37]. Also, the average AEB in test [39] worked out at 0.0355 AEB; in test [40], 0.386 AEB.
